{"source": "patent US20210347873A1", "about": "(SHANGHAI PHARMAEXPLORER, published 2021)", "binders": {"B1": {"name": "8E7D9C7F5 (antibody, V domains shown)", "VH": "QVQLQQSGVELARPGASVKLSCKASGYTFTSYGISWVKQRTGQALEWIGEIYPRSGNTYYNEKFKGKATLTADKSSSTAYMELRSLTSEDSAVYFCARSGPITTLVATDYGMDYWGQGTSVTVSS", "VL": "DIVLTQSPASLAVSLGQRATISCRASKSVSTSSYSYMHWYQQKPGQPPKLLIKFASNLESGVPARFSGSGSGTDFTLNIHPVEEEDAATYYCQHSREFPYTFGGGTKLEIK", "notes": "Mouse hybridoma monoclonal antibody purified on Protein G"}, "B2": {"name": "L1D12 (antibody, V domains shown)", "VH": "QVQLVQSGGGLVQPGGSLRLSCAASGFTVSSNYMSWVRQAPGKGLEWVSVIYSGGSTYYADSVKGRFTISRDNSKNTLYLQMNSLRAEDTAVYYCARGFHDILTGYGMDVWGQGTTVTVSS", "VL": "SSELTQDPAVSVALGQTVRITCQGDSLRNYYAGWYQQKPGQAPVLVIYGKNNRPSGIPDRFSGSSSGNTASLTITGTQAEDEADYYCSSRDNSGTHLVEFGGGTKLTVL", "notes": "From a human naive scFv phage library; also called human BLyS antibody L1D12; LID12"}, "B3": {"name": "L1D12 (antibody, human IgG1, V domains shown)", "VH": "B2 VH", "VL": "B2 VL", "notes": "also called LID12"}, "B4": {"name": "111D10D6G3 (antibody, V domains shown)", "VH": "QVQLQQPGAELVKPGASVKMSCKASGYTFTRHWITWVKQRPGQGLEWIGDIFPGSGSINYNEKFKSEATLTVEKSSSTAYMQLSSLTSEDSAVYYCARGDVDVWGTGTTVTVSS", "VL": "DIQMTQSPSSLSASLGERVSLTCRASQEIRGYLSWLQQKPNGTIKRLIYAASTLDSGVPKRFSATRSGSDFSLTISSLESEDFADYYCLQYASYPFTFGSGTKLEIK", "notes": "as for B1"}, "B5": {"name": "111D10D6G3 (antibody, V domains shown)", "VH": "B4 VH", "VL": "B4 VL", "notes": "Mouse hybridoma antibody purified on Protein G"}, "B6": {"name": "97A3C2H4 (antibody, V domains shown)", "VH": "EVKLVESGGGLVQPGGSLKLSCAASGFTFSTYTMSWVRQTPEKRLEWVAYISYGGGSTSYPDTVKGRFTISRDNAKNTLYLQMSSLKSEDTAIYYCTRHVTVVENSMDYWGQGTSVTVSS", "VL": "DILLTQSPDILSVSPGERVSFSCRASQSIGTSIHWYQQRTNGSPRLLIKYVSESFSGTPSRFSGSGSGTAFTLTINSVESEDIADYYCQQTHSWPWTFGGGTKLEIK", "notes": "as for B1"}, "B7": {"name": "97A3C2H4 (antibody, V domains shown)", "VH": "B6 VH", "VL": "B6 VL", "notes": "as for B5"}, "B8": {"name": "2-1G11 (antibody, V domains shown)", "VH": "EVQLVESRGGVVQPGRSLRLSCAASGFTFSSYGMHWVRQAPGKGLEWVAVISYDGSNKYYADSVKGRFTISRDNSKNTLYLQMNSLRAEDAAVYYCARDRVDILTGYSIYGMDVWGQGTTVTVSS", "VL": "EIVMTQSPATLSLSPGERATLSCRASQSVSSYLAWYQQKPGQAPRLLIYDASKRATGIPARFSGSGSGTDFTLTISSLEPEDFAVYYCQQRSNWPLTFGGGTKVEIK", "notes": "From a human naive scFv phage library; also called human BLyS antibody 2-1G11"}, "B9": {"name": "L9G7 (antibody, human IgG1, V domains shown)", "VH": "QIQLVQSGAEVKKPGASVKVSCKASGYTFTSYGISWVRQAPGQGLEWMGWISAYNGNTNYAQKLQGRVTMTTDTSTSTAYMELRSLRSDDTAVYYCARTYYDILTGYYYYGMDVWGQGTTVTVSS", "VL": "B8 VL with M4L, A9G, A25T, S30D, S31T, K53N"}, "B10": {"name": "L9G7 (antibody, V domains shown)", "VH": "B9 VH", "VL": "B8 VL with M4L, A9G, A25T, S30D, S31T, K53N", "notes": "From a human naive scFv phage library; also called human BLyS antibody L9G7"}}, "key": {"biotinylated hBLyS-ECD [1]": {"target": "T1, biotinylated hBLyS-ECD (human, UniProt Q9Y275 134-285, biotinylated with Biotin-X-X-NHS (molar ratio 7:1); sites not stated)", "T1 construct": "also called biotinylated immunogen; BLyS protein", "T1 sequence (Q9Y275 134-285)": "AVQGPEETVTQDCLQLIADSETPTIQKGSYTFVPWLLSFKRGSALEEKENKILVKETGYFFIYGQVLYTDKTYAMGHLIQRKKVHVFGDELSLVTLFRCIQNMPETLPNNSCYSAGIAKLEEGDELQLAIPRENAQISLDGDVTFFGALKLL", "test": "blocking ELISA: biotinylated hBLyS-ECD on coated BAFF R, antibody 0.00128 nM", "procedure": "BLyS antibody blocking the binding of the BLyS protein to its receptor BAFF R was detected by the receptor-ligand binding assay of BLyS protein.\n(§1) BAFF R (purchased from R & D Systems) was aliquoted into 96-well ELISA plate at 50 ng per well, and the plate was sealed with plastic film and incubated overnight at 4° C. On the next day the plate was washed four times with the plate washing buffer [PBS buffer containing 0.05% (v/v) Tween20] and added with blocking solution [PBS buffer containing 0.05% (v/v) Tween20 and 1% (w/w) BSA], then blocked for 1 hour at room temperature. The blocking solution was removed and 50 μL per well of the lead antibodies prepared in Embodiment 1 and 2 were added followed by the addition of 50 μL per well of the biotinylated hBLyS-ECD prepared in Embodiment 2. After incubation for 1 hour at 37° C., the plate was washed four times with the plate washing buffer [PBS buffer containing 0.05% (v/v) Tween20]. 100 μL per well of HRP-labeled (horseradish peroxidase) avidin (purchased from Sigma) was added and incubated at 37° C. for 1 hour. The plate was then washed four times with the plate washing buffer [PBS buffer containing 0.05% (v/v) Tween20]. 100 μL of TMB substrate was aliquoted into each well and after incubation for 5 minutes at room temperature, then 100 μL of stop solution (1.0 N HCl) was aliquoted into each well. A₄₅₀ₙₘ values were read with an ELISA plate reader (SpectraMax 384plus, Molecular Device) and the results were shown in FIGS. 9A-9B and Table 15. It was shown in Table 15 that the binding of BLyS protein to its receptor BAFF R could be blocked by the BLyS antibody."}, "biotinylated hBLyS-ECD [2]": {"target": "T1, biotinylated hBLyS-ECD", "test": "competitive ELISA on biotinylated hBLyS-ECD; competitor L9G7", "procedure": "The purified human BLyS antibody and hybridoma antibody were subjected to competitive enzyme-linked immunosorbent assay and the epitopes binding by different antibodies were analyzed.\nPurified BLyS antibody was first diluted to a final concentration of 1.0 μg/mL with PBS, then aliquoted into a 96-well ELISA plate at 50 μL per well, and the plate was subsequently sealed with plastic film and incubated at 4° C. overnight. On the next day the plate was rinsed four times with the plate washing buffer [PBS buffer containing 0.05% (v/v) Tween20] and mixed with blocking solution [PBS buffer containing 0.05% (v/v) Tween20 and 1% (w/w) BSA], and then blocked at 37° C. for 1 hour. The blocking solution was removed, and the competitive antibody and IgG control were diluted to a final concentration of 40 μg/mL with PBS and then aliquoted into the 96-well ELISA plate at 50 μL per well. The biotinylated hBLyS-ECD was then diluted with PBS to a final concentration of 2 ng/mL and pipetted into the 96-well ELISA plate at 50 μL per well. The final concentration of competitive antibody and hBLyS-ECD was 20 μg/mL and 1 ng/mL, respectively. After incubation at 37° C. for 1 hour, the plate was rinsed four times with the plate washing buffer [PBS buffer containing 0.05% (v/v) Tween20]. 100 μL per well of HRP-labeled (horseradish peroxidase) streptavidin (purchased from Sigma) was added into the plate and the plate was incubated at 37° C. for 1 hour. The plate was then washed four times with the plate washing buffer [PBS buffer containing 0.05% (v/v) Tween20]. 100 μL of TMB substrate was aliquoted into each well and after incubation at room temperature for 5 minutes, 100 μL of stop solution (1.0 N HCl) was aliquoted into each well. A₄₅₀ₙₘ values were read by an ELISA plate reader (SpectraMax M5e, purchased from Molecular Device) and the results were shown in Tables 18A-18B. […] The data shown in the table is the inhibitory rate (%) of the binding level of the original antibody to hBLyS-ECD after addition of the competitive antibody."}, "biotinylated hBLyS-ECD [3]": {"target": "T2, biotinylated hBLyS-ECD (human, UniProt Q9Y275 134-285, biotinylated with Biotin-X-X-NHS (molar ratio 7:1), sites not stated)", "T2 construct": "The hBLyS-ECD of Embodiment 1 after biotinylation (Embodiment 2); also called biotinylated immunogen; BLyS protein; not shown: His tag of the pCPC vector", "T2 sequence (Q9Y275 134-285)": "as above", "test": "ELISA, biotinylated hBLyS-ECD captured on streptavidin; antibody 0.534 nM", "procedure": "Streptavidin was first diluted to a final concentration of 1.0 μg/mL with PBS, and then 50 μL of diluted streptavidin per well was aliquoted into 96-well ELISA plate, which was subsequently sealed with plastic film and incubated at 4° C. overnight. On the next day the plate was washed four times with the plate washing buffer [PBS buffer containing 0.05% (v/v) Tween20] and added with the blocking solution [PBS buffer containing 0.05% (v/v) Tween20 and 1% (w/w) BSA] and blocked for 2 hours at 37° C. The blocking solution was removed, the biotinylated hBLyS-ECD prepared in Embodiment 2 was diluted with PBS to a final concentration of 50 ng/mL and then aliquoted into the 96-well ELISA plate at 50 μL per well and incubated for 1 hour at 37° C. After rinsing the plate four times with the plate washing buffer [PBS buffer containing 0.05% (v/v) Tween20], 100 μl of the purified lead antibody harvested in Embodiment 1 and 2 was pipetted into each well. After incubation for 1 hour at 37° C., the plate was rinsed four times with the plate washing buffer [PBS buffer containing 0.05% (v/v) Tween20]. HRP-labeled (horseradish peroxidase) secondary antibody (purchased from Sigma) was added in and incubated at 37° C. for 1 hour. The plate was then rinsed four times with the plate washing buffer [PBS buffer containing 0.05% (v/v) Tween20]. 100 μL of TMB substrate was aliquoted into each well and after incubation for 5 minutes at room temperature, 100 μL of stop solution (1.0 N HCl) was aliquoted into each well. A₄₅₀ₙₘ values were read via an ELISA plate reader (SpectraMax M5e purchased from Molecular Devices) and the results were shown in FIGS. 5A-5B and Table 10."}, "biotinylated hBLyS-ECD [4]": {"target": "T2, biotinylated hBLyS-ECD", "test": "receptor-ligand blocking ELISA: BAFF R coated, biotinylated hBLyS-ECD added with titrated antibody, HRP-avidin; blocked partner: BAFF R", "procedure": "as §1"}}, "note": "Changes are numbered by the printed parent chain.", "data": [{"binder": "B1", "values": [{"measurement": "OD450 nm", "setting": "biotinylated hBLyS-ECD [1]", "value": 1.62, "unit": "OD450 nm"}]}, {"binder": "B2", "values": [{"measurement": "inhibitory rate (%)", "setting": "biotinylated hBLyS-ECD [2]", "value": 90, "unit": "%"}]}, {"binder": "B3", "values": [{"measurement": "OD450 nm", "setting": "biotinylated hBLyS-ECD [3]", "value": 1.5}, {"measurement": "IC50 (read off the curve)", "setting": "biotinylated hBLyS-ECD [4]", "value": "~1", "unit": "nM"}]}, {"binder": "B4", "values": [{"measurement": "OD450 nm", "setting": "biotinylated hBLyS-ECD [1]", "value": 1.27, "unit": "OD450 nm"}]}, {"binder": "B5", "values": [{"measurement": "OD450 nm", "setting": "biotinylated hBLyS-ECD [3]", "value": 1.41}, {"measurement": "IC50 (read off the curve)", "setting": "biotinylated hBLyS-ECD [4]", "value": "~0.1", "unit": "nM"}]}, {"binder": "B6", "values": [{"measurement": "OD450 nm", "setting": "biotinylated hBLyS-ECD [1]", "value": 1.34, "unit": "OD450 nm"}]}, {"binder": "B7", "values": [{"measurement": "OD450 nm", "setting": "biotinylated hBLyS-ECD [3]", "value": 2.12}, {"measurement": "IC50 (read off the curve)", "setting": "biotinylated hBLyS-ECD [4]", "value": "~0.3", "unit": "nM"}]}, {"binder": "B8", "values": [{"measurement": "inhibitory rate (%)", "setting": "biotinylated hBLyS-ECD [2]", "value": 79, "unit": "%"}]}, {"binder": "B9", "values": [{"measurement": "OD450 nm", "setting": "biotinylated hBLyS-ECD [3]", "value": 1.35}, {"measurement": "IC50 (read off the curve)", "setting": "biotinylated hBLyS-ECD [4]", "value": "~0.7", "unit": "nM"}]}, {"binder": "B10", "values": [{"measurement": "inhibitory rate (%)", "setting": "biotinylated hBLyS-ECD [2]", "value": 95, "unit": "%"}]}]}
